Results reported in patent publication US20260217818A1 (Y BIOLOGICS, published 2026).

T1: human claudin-18.2 (claudin-18 spliced variant 2, CLDN18.2) overexpressed on HEK293E/18.2 or CHO-K1/18.2 cells (human, UniProt P56856 1-261)
T1 sequence: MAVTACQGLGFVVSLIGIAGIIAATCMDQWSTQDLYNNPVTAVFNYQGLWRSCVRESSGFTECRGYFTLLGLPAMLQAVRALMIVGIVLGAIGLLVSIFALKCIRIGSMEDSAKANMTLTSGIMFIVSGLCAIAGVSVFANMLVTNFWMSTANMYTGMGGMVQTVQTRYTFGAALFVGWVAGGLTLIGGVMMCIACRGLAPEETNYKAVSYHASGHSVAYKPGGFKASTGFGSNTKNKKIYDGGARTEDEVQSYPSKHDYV

T2: human CLDN18.2 protein (CUSABIO, #CSB-MP005498HU (A5)), coated antigen (human, UniProt P56856 1-261)
T2 construct: also called CLDN18.2 antigen; CLDN18.2-VLPs antigen
T2 sequence: T1 sequence

T3: human CLDN18.1 protein (EUPROTEIN, #EPY255141), coated antigen (human, UniProt P56856 1-261, limits assumed)
T3 construct: Bought antigen; also called CLDN18.1 antigen
T3 sequence (looked up): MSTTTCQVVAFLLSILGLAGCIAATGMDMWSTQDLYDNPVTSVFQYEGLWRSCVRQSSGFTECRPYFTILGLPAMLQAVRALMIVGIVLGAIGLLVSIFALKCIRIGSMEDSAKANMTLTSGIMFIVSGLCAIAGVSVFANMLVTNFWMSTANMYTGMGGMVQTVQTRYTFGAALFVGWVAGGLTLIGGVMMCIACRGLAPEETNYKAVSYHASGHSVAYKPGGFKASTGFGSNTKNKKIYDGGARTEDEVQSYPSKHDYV

B1: 0058-001 (antibody, V domains shown)
VH: QVQLVESGGGLVQPGGSLRLSCAASGFTFSSYAMSWVRQAPGKGLEWVAAISGSGGSTYFADSVRGRFTISRDNPQSTLYLQMNSLRAEDTAVYYCAKEGVWWLRYFDHWGQGTPITVSS
VL: QSALTQPRSVSGSPGQSVTISCTGTSNDVGGYTYVSWYQQHPGKAPKLMIYDVSKRPSGVPDRFSGSKSGNTASLTISGLQAEDEADYYCSSYAGSYTWVFGGGTKLTVL
notes: scFv clone from a human phage library, converted into IgG form for the experiments; also called anti-CLDN18.2 antibody 0058-001; monoclone 0058-001
B2: 0058-002 (antibody, V domains shown)
VH: QMQLVESGGGLVQPGGSLRLSCAASGFTFSSYAMSWVRQAPGKGLEWVSAISGSGGSTYYADSVKGRFTISRDNSKNTLYLQMNSLRAEDTAVYYCARGLGYYYYGMDVWGQGTTVTVSS
VL: DIQMTQSPSSLSASVGDRVTITCRASQTVSSWLAWYQQKPGKAPKLLIYAASSLQSGVPSRFSGSGSGTEFTLTISSLQPEDFGTYYCQQYHSFPPTFGGGTKVGIK
notes: scFv clone from a human phage library, converted into IgG form for the experiments; also called anti-CLDN18.2 antibody 0058-002; monoclone 0058-002
B3: 0058-003 (antibody, V domains shown)
VH: QVQLVQSGGGLVQPGGSLRLSCAASGFTFSSYAMSWVRQAPGKGLEWVSAISGSGGSTYYADSVKGRFTISRDNSKNTLYLQMNSLRAEDTAVYYCARGAASSYYFDYWGLGTTVTVSS
VL: DIQMTQSPSSLAAYVGDTVTITCRASAGVRNYLAWVQQKPGKAPRSLIYGAFKLQSGVPSRFSGSGSGTEFTLTISSLQPEDFGTYYCQQYHSFPPTFGGGTKVDIK
notes: scFv clone from a human phage library, converted into IgG form for the experiments; also called anti-CLDN18.2 antibody 0058-003; monoclone 0058-003

What follows are binders tested against T1, human claudin-18.2 (claudin-18 spliced …) (assay: cell-based or functional assay).

Binder	Cell viability (%) at 10 nM, HEK293E/18.2 (Fab-ZAP assay) [%]	IC50 (nM), HEK293E/18.2 (Fab-ZAP assay) [nM]
B1	76	0.1
B2	58	0.04
B3	56	0.04

Biological target: T1, human claudin-18.2 (claudin-18 spliced …)
Experiment: cell-based or functional assay
Remark: another data set of the same source

Binder	cellular internalization (IncuCyte FabFluor, HEK293E/18.2 cells) [%]
B1	50
B2	50
B3	50

The binders below were run against T2, human CLDN18.2 protein (CUSABIO, …) (assay: ELISA, CLDN18.2 coated at 1 µg/mL, serially diluted antibody).
Protocol: (§1) CLDN18.1 (EUPROTEIN, #EPY255141) and CLDN18.2 (CUSABIO, #CSB-MP005498HU (A5)) proteins were each prepared at a concentration of 1 μg/mL using a dilution buffer (4% skim milk/0.05% tween-20/PBS), and 100 μL of each was added to individual wells of an immunoassay plate (Thermo, #439454) and incubated statically at 4° C. for more than 16 hours. After three washes with 300 μL of wash buffer (0.05% tween-20/PBS), 200 μL of blocking buffer (4% skim milk/0.05% tween-20/PBS) was added to the wells and incubated for 1 hour at room temperature. After three washes, 100 μL of the anti-CLDN18.2 antibodies, each prepared by serial dilution, was added to each well and incubated at room temperature for 1 hour with rocking. After three washes, 100 μL of anti-human kappa-HRP (Sigma, #A7164) antibody, prepared at dilution ratio of 1:3,000, was added to each well and incubated at room temperature for 1 hour. After three washes, 100 μL of TMB substrate (Sigma, #T0440) was added to each well and incubated in the dark at room temperature, and when color development was observed, 50 μL of stop solution (1N H₂SO₄) was added to stop the reaction. Absorbance was measured using a microplate reader (Promega, GM3000).

Binder	binding result
B1	binds
B2	binds
B3	binds

Each binder was assayed against T3, human CLDN18.1 protein (EUPROTEIN, …) (assay: ELISA, CLDN18.1 coated at 1 µg/mL, serially diluted antibody).
Protocol: as §1

Binder	binding result
B1	no binding
B2	no binding
B3	no binding
